The record followed here is patent publication US20200377573.

This series concerns the target HTRA1-inhibiting peptides (Example 3-2 and 3-3, members not named).

B1: Human chymase (protein)
chain: IIGGTECKPHSRPYMAYLEIVTSNGPSKFCGGFLIRRNFVLTAAHCAGRSITVTLGAHNITEEEDTWQKLEVIKQFRHPKYNTSTLHHDIMLLKLKEKASLTLAVGTLPFPSQFNFVPPGRMCRVAGWGRTGVLKPGSDTLQEVKLRLMDPQACSHFRDFDHNLQLCVGNPRKTKSAFKGDSGGPLLCAGVAQGIVSYGRSDAKPPAVFTRISHYRPWINQILQAN
Consider B1, for which the “protease activity (decomposition of a peptide substrate)” value (from here on “protease activity”) is recorded as “did not suppress the protease activity of any of the proteases at a final inhibitor concentration of 1 micro M”.

B2: Human tPA (protein)
chain: SYQVICRDEKTQMIYQQHQSWLRPVLRSNRVEYCWCNSGRAQCHSVPVKSCSEPRCFNGGTCQQALYFSDFVCQCPEGFAGKCCEIDTRATCYEDQGISYRGTWSTAESGAECTNWNSSALAQKPYSGRRPDAIRLGLGNHNYCRNPDRDSKPWCYVFKAGKYSSEFCSTPACSEGNSDCYFGNGSAYRGTHSLTESGASCLPWNSMILIGKVYTAQNPSAQALGLGKHNYCRNPDGDAKPWCHVLKNRRLTWEYCDVPSCSTCGLRQYSQPQFRIKGGLFADIASHPWQAAIFAKHRRSPGERFLCGGILISSCWILSAAHCFQERFPPHHLTVILGRTYRVVPGEEEQKFEVEKYIVHKEFDDDTYDNDIALLQLKSDSSRCAQESSVVRTVCLPPADLQLPDWTECELSGYGKHEALSPFYSERLKEAHVRLYPSSRCTSQHLLNRTVTDNMLCAGDTRSGGPQANLHDACQGDSGGPLVCLNDGRMTLVGIISWGLGCGQKDVPGVYTKVTNYLDWIRDNMRP
B2: the “protease activity” value is listed as “did not suppress the protease activity of any of the proteases at a final inhibitor concentration of 1 micro M”.

B3: Human HTRA2 (protein)
chain: AVPSPPPASPRSQYNFIADVVEKTAPAVVYIEILDRHPFLGREVPISNGSGFVVAADGLIVTNAHVVADRRRVRVRLLSGDTYEAVVTAVDPVADIATLRIQTKEPLPTLPLGRSADVRQGEFVVAMGSPFALQNTITSGIVSSAQRPARDLGLPQTNVEYIQTDAAIDFGNSGGPLVNLDGEVIGVNTMKVTAGISFAIPSDRLREFLHRGEKKNSSSGISGSQRRYIGVMMLTLSPSILAELQLREPSFPDVQHGVLIHKVILGSPAHRAGLRPGDVILAIGEQMVQNAEDVYEAVRTQSQLAVQIRRGRETLTLYVTPEVTE
Turning to B3, the “protease activity” value was “did not suppress the protease activity of any of the proteases at a final inhibitor concentration of 1 micro M”.

B4: Human plasmin (protein)
chain: KVYLSECKTGNGKNYRGTMSKTKNGITCQKWSSTSPHRPRFSPATHPSEGLEENYCRNPDNDPQGPWCYTTDPEKRYDYCDILECEEECMHCSGENYDGKISKTMSGLECQAWDSQSPHAHGYIPSKFPNKNLKKNYCRNPDRELRPWCFTTDPNKRWELCDIPRCTTPPPSSGPTYQCLKGTGENYRGNVAVTVSGHTCQHWSAQTPHTHNRTPENFPCKNLDENYCRNPDGKRAPWCHTTNSQVRWEYCKIPSCDSSPVSTEQLAPTAPPELTPVVQDCYHGDGQSYRGTSSTTTTGKKCQSWSSMTPHRHQKTPENYPNAGLTMNYCRNPDADKGPWCFTTDPSVRWEYCNLKKCSGTEASVVAPPPVVLLPDVETPSEEDCMFGNGKGYRGKRATTVTGTPCQDWAAQEPHRHSIFTPETNPRAGLEKNYCRNPDGDVGGPWCYTTNPRKLYDYCDVPQCAAPSFDCGKPQVEPKKCPGRVVGGCVAHPHSWPWQVSLRTRFGMHFCGGTLISPEWVLTAAHCLEKSPRPSSYKVILGAHQEVNLEPHVQEIEVSRLFLEPTRKDIALLKLSSPAVITDKVIPACLPSPNYVVADRTECFITGWGETQGTFGAGLLKEAQLPVIENKVCNRYEFLNGRVQSTELCAGHLAGGTDSCQGDSGGPLVCFEKDKYILQGVTSWGLGCARPNKPGVYVRVSRFVTWIEGVMRNN
Regarding B4, the “protease activity” value is “did not suppress the protease activity of any of the proteases at a final inhibitor concentration of 1 micro M”.

B5: Human matriptase (protein)
chain: VVGGTDADEGEWPWQVSLHALGQGHICGASLISPNWLVSAAHCYIDDRGFRYSDPTQWTAFLGLHDQSQRSAPGVQERRLKRIISHPFFNDFTFDYDIALLELEKPAEYSSMVRPICLPDASHVFPAGKAIWVTGWGHTQYGGTGALILQKGEIRVINQTTCENLLPQQITPRMMCVGFLSGGVDSCQGDSGGPLSSVEADGRIFQAGVVSWGDGCAQRNKPGVYTRLPLFRDWIKENTGV
For the protein B5, the “protease activity” value is reported as “did not suppress the protease activity of any of the proteases at a final inhibitor concentration of 1 micro M”.
